Laboratory results: patent publication US7118889 (US Dept. of Health and Human Services, dated 2006)

Columns and labels:
[1] = molecular target: Lck protein tyrosine kinase (transfected in 293T cells) (UniProt P06239 2-509, limits assumed); assay: co-immunoprecipitation from transfected 293T cells
Experimental: Figure 4B: FIG. 4(B) is a representative immunoblot, showing association of LAT with signaling molecules in 293T cells. FLAG-tagged LAT was cotransfected with pCEFL/HA-Grb2, pSRα/Grap-myc, pcDNA3/HA-p85 and pcDNA3/PLC-γ1 in the absence or presence of ZAP-70 and Lck PTKs. Brij lysates of transfected 293T cells were immunoprecipitated with anti-FLAG, and association of LAT with tested proteins was determined by blotting with specific antibodies.
In this example, association of LAT with Grb2, Grap, PI3K and PLC-γ1 is shown in 293T cells. To investigate the association of LAT with critical signaling molecules, FLAG-tagged LAT in the pcDNA3 vector was cotransfected in 293T cells with plasmids expressing HA-tagged Grb2, Myc-tagged Grap, HA-tagged p85 subunit of PI3K or PLC-γ1, in the presence or absence of both ZAP-70 and Lck. LAT was immunoprecipitated with anti-FLAG antibody, and associated proteins were detected by blotting with specific antibodies. […] When LAT and the two PTKs were coexpressed with HA-tagged Grb2, both endogenous Grb2 and HA-Grb2 bound to phosphorylated LAT (HA-Grb2 migrates more slowly than endogenous Grb2 on SDS-PAGE). Myc-tagged Grap, the Grb2-like protein, when coexpressed with LAT in the presence of the two PTKs, also associated with phosphorylated LAT. […] HA-tagged p85 or PLC-γ1 also associated with phosphorylated LAT. […]

[2] = molecular target: T1, p85 subunit of PI3K, endogenous, Jurkat T cells (human, UniProt P27986 2-724); assay: anti-myc immunoprecipitation from C305-stimulated stable Jurkat transfectants, immunoblot
T1 construct: mature; also called p85 subunit of PI-3 kinase
Experimental: (§1) Exogenous LAT was immunoprecipitated with anti-myc antibody from cells either left unstimulated or stimulated with C305 (1:50). Samples were analyzed on SDS-PAGE and blotted with 4G10. The same membrane was also blotted with anti-PLC-γ1, anti-p85, anti-Grb2, anti-SOS, and anti-LAT after stripping.
(§2) Myc-tagged LAT was immunoprecipitated with anti-myc antibody from unstimulated or C305 stimulated transfectants. […] The myc-tagged LAT appears as a doublet as does endogenous LAT. […] In addition, mutations at Y171 and Y191 prevented the association of SLP-76, Vav and Cbl, but the 70 kDa tyrosine-phosphorylated protein remained associated with LAT. […] The association with SOS was also disrupted by the double Y to F mutations.

[3] = molecular target: T2, Cbl, endogenous, Jurkat T cells (human, UniProt P22681 1-906, tyrosine phosphorylated in stimulated cells); assay: as above
T2 construct: also called Cbl (120 kD); c-cbl
Experimental: as §1, §2

[4] = molecular target: T3, Vav, endogenous, Jurkat T cells (human, UniProt P15498 1-845, tyrosine phosphorylated in stimulated cells); assay: as above
T3 construct: also called Vav (100 kD)
T3 sequence (looked up): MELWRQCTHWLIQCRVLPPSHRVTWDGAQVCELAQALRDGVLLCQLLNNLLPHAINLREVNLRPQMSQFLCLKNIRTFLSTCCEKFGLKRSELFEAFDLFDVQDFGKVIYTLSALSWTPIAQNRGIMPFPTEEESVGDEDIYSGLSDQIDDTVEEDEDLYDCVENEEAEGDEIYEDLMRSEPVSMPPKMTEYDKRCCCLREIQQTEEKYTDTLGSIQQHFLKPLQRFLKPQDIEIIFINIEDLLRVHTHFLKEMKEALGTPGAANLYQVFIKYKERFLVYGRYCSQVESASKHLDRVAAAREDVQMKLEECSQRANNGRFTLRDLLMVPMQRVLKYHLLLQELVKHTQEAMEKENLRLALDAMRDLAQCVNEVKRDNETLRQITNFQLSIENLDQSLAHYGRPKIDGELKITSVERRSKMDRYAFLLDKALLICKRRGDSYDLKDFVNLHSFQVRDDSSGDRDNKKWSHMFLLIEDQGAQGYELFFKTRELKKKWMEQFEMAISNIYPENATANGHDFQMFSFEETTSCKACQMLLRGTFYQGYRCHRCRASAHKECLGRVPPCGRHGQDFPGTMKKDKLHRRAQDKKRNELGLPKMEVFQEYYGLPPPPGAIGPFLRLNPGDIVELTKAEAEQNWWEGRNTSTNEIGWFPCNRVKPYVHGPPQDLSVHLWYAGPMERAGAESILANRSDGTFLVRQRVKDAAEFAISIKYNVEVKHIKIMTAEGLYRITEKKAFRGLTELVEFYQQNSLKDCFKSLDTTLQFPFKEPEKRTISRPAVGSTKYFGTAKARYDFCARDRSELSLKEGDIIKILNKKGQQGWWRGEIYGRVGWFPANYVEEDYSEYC
Experimental: as §1, §2

[5] = molecular target: T4, SLP-76, endogenous, Jurkat T cells (human, UniProt Q13094 1-533, tyrosine phosphorylated in stimulated cells); assay: as above
T4 construct: mature; also called 76 kD protein; SH2-domain Leukocyte Protein
T4 sequence (looked up): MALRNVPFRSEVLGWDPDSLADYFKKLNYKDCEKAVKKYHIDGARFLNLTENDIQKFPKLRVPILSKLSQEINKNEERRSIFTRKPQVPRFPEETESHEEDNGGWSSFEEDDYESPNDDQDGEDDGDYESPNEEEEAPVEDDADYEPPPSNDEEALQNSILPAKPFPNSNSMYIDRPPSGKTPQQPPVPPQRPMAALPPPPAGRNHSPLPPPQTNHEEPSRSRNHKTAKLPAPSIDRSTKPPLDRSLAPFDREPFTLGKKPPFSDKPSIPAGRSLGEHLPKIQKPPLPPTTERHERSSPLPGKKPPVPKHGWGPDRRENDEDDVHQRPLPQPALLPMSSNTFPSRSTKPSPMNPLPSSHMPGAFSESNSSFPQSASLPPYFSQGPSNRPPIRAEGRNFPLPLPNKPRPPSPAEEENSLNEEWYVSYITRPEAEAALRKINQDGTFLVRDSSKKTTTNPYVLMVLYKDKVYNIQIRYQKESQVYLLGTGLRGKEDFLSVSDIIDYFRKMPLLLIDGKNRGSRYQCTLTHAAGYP
Experimental: as §1, §2

[6] = molecular target: T5, Grb2, endogenous (293T cells and Jurkat T cells) (human, UniProt P62993 1-217); assay: as above
T5 construct: Endogenous protein of human cell lines; also called endogenous Grb2; Grb2 linker protein
Experimental: as §1, §2

Measured: binding result

Chain of Lck protein tyrosine kinase (transfected in 293T cells) (P06239 2-509 limits assumed): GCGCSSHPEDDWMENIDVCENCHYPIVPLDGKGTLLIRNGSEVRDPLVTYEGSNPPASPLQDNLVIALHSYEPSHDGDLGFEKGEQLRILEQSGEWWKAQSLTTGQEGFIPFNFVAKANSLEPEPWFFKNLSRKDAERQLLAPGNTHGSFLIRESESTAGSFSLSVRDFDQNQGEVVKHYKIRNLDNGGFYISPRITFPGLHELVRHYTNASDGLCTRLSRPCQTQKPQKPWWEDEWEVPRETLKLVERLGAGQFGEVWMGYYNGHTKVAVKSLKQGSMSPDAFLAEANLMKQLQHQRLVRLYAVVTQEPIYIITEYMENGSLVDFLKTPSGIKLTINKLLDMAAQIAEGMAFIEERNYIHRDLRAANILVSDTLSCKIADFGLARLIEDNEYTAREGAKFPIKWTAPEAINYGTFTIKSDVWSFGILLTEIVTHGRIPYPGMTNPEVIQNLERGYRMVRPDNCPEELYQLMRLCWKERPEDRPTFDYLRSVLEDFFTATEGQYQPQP
T5 sequence (P62993 whole entry): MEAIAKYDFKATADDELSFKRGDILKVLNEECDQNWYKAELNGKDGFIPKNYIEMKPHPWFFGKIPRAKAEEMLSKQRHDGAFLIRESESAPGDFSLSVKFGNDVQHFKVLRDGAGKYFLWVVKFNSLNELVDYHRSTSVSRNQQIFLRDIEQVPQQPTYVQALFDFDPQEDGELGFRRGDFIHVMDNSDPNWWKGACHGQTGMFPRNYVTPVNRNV
T1 sequence (P27986 2-724): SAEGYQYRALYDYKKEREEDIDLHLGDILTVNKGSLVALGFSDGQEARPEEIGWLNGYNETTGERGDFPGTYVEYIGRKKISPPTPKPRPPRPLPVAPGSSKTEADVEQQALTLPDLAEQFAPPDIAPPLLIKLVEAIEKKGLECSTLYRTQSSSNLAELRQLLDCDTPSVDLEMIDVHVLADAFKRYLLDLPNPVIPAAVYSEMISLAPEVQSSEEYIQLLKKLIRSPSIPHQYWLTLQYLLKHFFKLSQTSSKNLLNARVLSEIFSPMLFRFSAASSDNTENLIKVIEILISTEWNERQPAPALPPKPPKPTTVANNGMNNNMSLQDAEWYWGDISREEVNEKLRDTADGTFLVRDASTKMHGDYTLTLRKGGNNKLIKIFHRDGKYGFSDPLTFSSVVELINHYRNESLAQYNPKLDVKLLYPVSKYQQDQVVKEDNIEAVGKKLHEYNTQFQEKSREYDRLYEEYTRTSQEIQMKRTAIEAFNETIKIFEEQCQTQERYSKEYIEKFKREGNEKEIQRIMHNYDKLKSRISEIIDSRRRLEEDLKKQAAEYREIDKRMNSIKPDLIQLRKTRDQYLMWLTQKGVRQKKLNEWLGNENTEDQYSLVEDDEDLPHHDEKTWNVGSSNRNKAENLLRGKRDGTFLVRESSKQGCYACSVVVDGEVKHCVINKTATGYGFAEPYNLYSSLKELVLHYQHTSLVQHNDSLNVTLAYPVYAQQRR

B1: FLAG-tagged LAT, tyrosine phosphorylated (co-expressed in 293T cells with Syk, or with ZAP-70 and Lck or Fyn) (other)
chain: MEEAILVPCVLGLLLLPILAMLMALCVHCHRLPGSYDSTSSDSLYPRGIQFKRPHTVAPWPPAYPPVTSYPPLSQPDLLPIPRSPQPLGGSHRTPSSRRDSDGANSVASYENEEPACEDADEDEDDYHNPGYLVVLPDSTPATSTAAPSAPALSTPGIRDSAFSMESIDDYVNVPESGESAEASLDGSREYVNVSQELHPGAAKTEPAALSSQEAEEVEEEGAPDYENLQELNDYKDDDDK
modifications: tyrosine phosphorylated by co-expressed PTKs; sites not mapped
notes: Made by replacing the Pst I/Cla I fragment of LAT with an oligonucleotide encoding FLAG; also called phosphorylated LAT
no binding: [1]

B2: myc-tagged mutant LAT (Y171/191F), stably expressed in Jurkat cells, C305 stimulated (other)
chain: MEEAILVPCVLGLLLLPILAMLMALCVHCHRLPGSYDSTSSDSLYPRGIQFKRPHTVAPWPPAYPPVTSYPPLSQPDLLPIPRSPQPLGGSHRTPSSRRDSDGANSVASYENEEPACEDADEDEDDYHNPGYLVVLPDSTPATSTAAPSAPALSTPGIRDSAFSMESIDDFVNVPESGESAEASLDGSREFVNVSQELHPGAAKTEPAALSSQEAEEVEEEGAPDYENLQELNSMEQKLISEEDLN
modifications: tyrosine phosphorylated upon stimulation at residues other than Y171 and Y191, less than WT
notes: also called mLAT
no binding: [2] | [3] | [4] | [5] | [6]
